Results from publication PMC2701634.
Where “and” joins values, the source holds several entries; their conditions need not be identical. Equal entries are not always repeated.

Columns and labels:
Test in all cases: native gel or EMSA; purified p66 on NativePage Novex Bis-Tris gel, then Western blotting with mouse monoclonal anti-RT antibody; in the presence or absence of β-mercaptoethanol
[1] = target: HIV-1 reverse transcriptase p66 subunit, mutant I274A (HIV-1 (pNL4-3-ΔE-EGFP))
[2] = target: HIV-1 reverse transcriptase p66 subunit, mutant Y271A (HIV-1 (pNL4-3-ΔE-EGFP))
[3] = target: HIV-1 reverse transcriptase p66 subunit, wild type (HIV-1 (pNL4-3-ΔE-EGFP))

HIV-1 reverse transcriptase p66 subunit, mutant I274A (enzyme)
stoichiometry N [1]: 4 and 8

HIV-1 reverse transcriptase p66 subunit, mutant Y271A (enzyme)
stoichiometry N [2]: 2 and 4

HIV-1 reverse transcriptase p66 subunit, wild type (enzyme)
stoichiometry N [3]: 2
